“Also recorded” adds a separate entry of the source.
Columns and labels:
[1] = tested on: (CTA)12/(TAG)12 36-mer DNA duplex; assay: In vitro DNA methylation assay of DIM2 (WT or mutant); format: biochemical; parameters: DNA methylation activity: unit not given here; conditions: Fig. 3h, in the presence of HP1 (2 µM) and H3_1-24K9me3 peptide (1.0 µM), 1.0 µM DIM2, 30 °C, 30 min, pH 8.0
HP1 = assay: Size-exclusion chromatography of DIM2-HP1 complex; format: binding, Neurospora Crassa; conditions: 1.0 µM DIM2 and/or 2.5 µM HP1, Superdex 200 increase 10/300 GL, pH 7.5
Protocol: For size-exclusion chromatography analysis, 400 µL of the sample mixture containing 1.0 µM DIM2 and/or 2.5 µM HP1 was loaded onto Superdex 200 increase 10/300 GL column (GE Healthcare) and eluted at a flow rate of 0.5 mL/min, in the buffer containing 20 mM Tris-HCl (pH 7.5), 100 mM NaCl, 5% glycerol, and 5 mM DTT. The proteins in each fraction were then visualized by SDS-PAGE.

[2] = Thermal shift assay, protein alone; format: physicochemical; conditions: 5 μM DIM2 or 10 µM HP1, pH 7.5, 1× GloMelt Dye, 4 to 95 °C, triplicate
Protocol: Thermal shift assays were performed for WT and R1104A DIM2 proteins using a Bio-Rad CFX Connect Real-Time PCR Detection System. Each 20-µL reaction mixture contained 5 μM WT or R1104A-mutated DIM2, and/or 10 µM HP1 protein, dissolved in buffer containing 20 mM Tris-HCl (pH 7.5), 100 mM NaCl, 5% glycerol, 5 mM DTT, and 1× GloMelt Dye (Biotium). The sample plates were subject to heat from 4 to 95 °C with a stepwise increment of 5 °C. Fluorescence intensity was recorded with the excitation and emission wavelength of 470 nm and 510 nm, respectively. The experiments were carried out in triplicate.

B1: DIM2R1104A: DIM2 with TRD mutation R1104A (protein)
chain: MDSPDRSHGGMFIDVPAETMGFQEDYLDMFASVLSQGLAKEGDYAHHQPLPAGKEECLEPIAVATTITPSPDDPQLQLQLELEQQFQTESGLNGVDPAPAPESEDEADLPDGFSDESPDDDFVVQRSKHITVDLPVSTLINPRSTFQRIDENDNLVPPPQSTPERVAVEDLLKAAKAAGKNKEDYIEFELHDFNFYVNYAYHPQEMRPIQLVATKVLHDKYYFDGVLKYGNTKHYVTGMQVLELPVGNYGASLHSVKGQIWVRSKHNAKKEIYYLLKKPAFEYQRYYQPFLWIADLGKHVVDYCTRMVERKREVTLGCFKSDFIQWASKAHGKSKAFQNWRAQHPSDDFRTSVAANIGYIWKEINGVAGAKRAAGDQLFRELMIVKPGQYFRQEVPPGPVVTEGDRTVAATIVTPYIKECFGHMILGKVLRLAGEDAEKEKEVKLAKRLKIENKNATKADTKDDMKNDTATESLPTPLRSLPVQVLEATPIESDIVSIVSSDLPPSENNPPPLTNGSVKPKAKANPKPKPSTQPLHAAHVKYLSQELVNKIKVGDVISTPRDDSSNTDTKWKPTDTDDHRWFGLVQRVHTAKTKSSGRGLNSKSFDVIWFYRPEDTPCCAMKYKWRNELFLSNHCTCQEGHHARVKGNEVLAVHPVDWFGTPESNKGEFFVRQLYESEQRRWITLQKDHLTCYHNQPPKPPTAPYKPGDTVLATLSPSDKFSDPYEVVEYFTQGEKETAFVRLRKLLRRRKVDRQDAPANELVYTEDLVDVRAERIVGKCIMRCFRPDERVPSPYDRGGTGNMFFITHRQDHGRCVPLDTLPPTLRQGFNPLGNLGKPKLRGMDLYCGGGNFGRGLEEGGVVEMRWANDIWDKAIHTYMANTPDPNKTNPFLGSVDDLLRLALEGKFSDNVPRPGEVDFIAAGSPCPGFSLLTQDKKVLNQVKNQSLVASFASFVDFYRPKYGVLENVSGIVQTFVNRKQDVLSQLFCALVGMGYQAQLILGDAWAHGAPQSRERVFLYFAAPGLPLPDPPLPSHSHYRVKNRNIGFLCNGESYVQRSFIPTAFKFVSAGEGTADLPKIGDGKPDACVRFPDHRLASGITPYIAAQYACIPTHPYGMNFIKAWNNGNGVMSKSDRDLFPSEGKTRTSDASVGWKRLNPKTLFPTVTTTSNPSDARMGPGLHWDEDRPYTVQEMRRAQGYLDEEVLVGRTTDQWKLVGNSVSRHMALAIGLKFREAWLGTLYD
modifications: left off: His6, N-terminal, cleaved | MBP, N-terminal, cleaved
notes: DIM2 with TRD mutation R1104A
DNA methylation activity ([1]; replicate 1): 3.1
DNA methylation activity ([1]; replicate 2): 2.552
DNA methylation activity ([1]; replicate 3): 2.87
DIM2-HP1 complex formation (in words) (HP1): did not affect the assembly of the DIM2-HP1 complex appreciably; also recorded: barely impacts the association of the DIM2-HP1 complex
melting temperature (Tm) [2]: 39.5 °C

Source: article PMC11315935, “Multi-layered heterochromatin interaction as a switch for DIM2-mediated DNA methylation” (Nature Communications, 2024)
